Results taken from the RNAGym collection of RNA variant scans (doi:10.7554/elife.90254).

B1: LINE1-mini (parent)
chain: GGCAGAGCUCAACACAGCGUGGCAAAGUGGCUGUGGCUAGACUGCC

Variants of: B1
Assay: self-cleavage, relative activity (ratio to wild type); higher = more cleavage; in vitro, sequencing; the parent is a self-cleaving ribozyme

Row | Variant | self-cleavage
1 | C18U U32C | 0.16
2 | C18G G40U | 0.06
3 | C18G G40A | 0.05
4 | C18G G40C | 0.05
5 | G19A A24C | 0.61
6 | G19A A24G | 1.45
7 | G19A A24U | 2.05
8 | C18A U43A | 0.08
9 | C18A U43G | 0.26
10 | C18A U43C | 0.05
11 | C18U A41G | 0.26
12 | C18U A41U | 0.92
13 | C18U A41C | 0.05
14 | C18G G29U | 0.96
15 | C18G G29C | 0.49
16 | C18G G29A | 1.38
17 | C18G A39U | 0.47
18 | C18G A39C | 0.06
19 | C18G A39G | 0.07
20 | C18U G33A | 0.09
21 | C18U G33C | 0.04
22 | C18U G33U | 0.05
23 | C18G G22U | 0.87
24 | C18G G22A | 0.82

Row | Variant | self-cleavage
25 | C18G G22C | 0.12
26 | G17U U32G | 0.09
27 | G17U U32A | 0.08
28 | G17U U32C | 0.18
29 | C18G G30A | 0.92
30 | C18G G30C | 1
31 | C18G G30U | 0.62
32 | C18A A24G | 0.56
33 | C18A A24U | 0.67
34 | C18A A24C | 0.18
35 | C18G C45G | 0.09
36 | C18G C45A | 0.26
37 | C18G C45U | 0.13
38 | C18A C42A | 0.12
39 | C18A C42G | 0.04
40 | C18A C42U | 0.13
41 | G19A A39C | 0.75
42 | C18U G35U | 0.08
43 | C18U G35C | 0.03
44 | C18U G35A | 0.1
45 | G17U G22A | 0.26
46 | G17U G22C | 0.61
47 | G17U G22U | 0.67
48 | C18G G35U | 0.08

Row | Variant | self-cleavage
49 | C18G G35A | 0.07
50 | C18U U20C | 0.98
51 | C18U U20G | 0.41
52 | C18U U20A | 0.61
53 | C18U G19C | 0.56
54 | C18U G19U | 1.14
55 | C18U G19A | 1.13
56 | C18A G22C | 0.92
57 | C18A G22A | 1.07
58 | C18A G22U | 1.74
59 | C18A G21A | 1.86
60 | C18A G21C | 0.96
61 | C18A G21U | 0.77
62 | C18A G27C | 0.62
63 | C18A G27A | 1.47
64 | C18A G27U | 1.04
65 | G17U G29C | 0.39
66 | G17U G29U | 0.43
67 | G17U G29A | 0.43
68 | C18A G40U | 0.06
69 | C18A G40A | 0.05
70 | C18A G40C | 0.03
71 | C18G C42G | 0.04
72 | C18G C42A | 0.07

Row | Variant | self-cleavage
73 | C18G C42U | 0.05
74 | C18U C31U | 0.04
75 | C18U C31G | 0.05
76 | C18U C31A | 0.08
77 | G17U G19U | 0.14
78 | G17U G19C | 1.08
79 | G17U G19A | 0.78
80 | C18A A39C | 0.06
81 | C18A A39G | 0.05
82 | C18A A39U | 0.76
83 | C18A U28C | 0.49
84 | C18A U28G | 0.5
85 | C18A U28A | 0.7
86 | G17U G35C | 0.18
87 | G17U G35A | 0.07
88 | G17U G35U | 0.07
89 | C18U C45G | 0.27
90 | C18U C45U | 1.45
91 | C18U C45A | 0.79
92 | C18A A41U | 0.34
93 | C18A A41C | 0.05
94 | C18A A41G | 0.13
95 | G17U C23G | 0.1
96 | G17U C23U | 0.18

Row | Variant | self-cleavage
97 | G17U C23A | 0.21
98 | C18U U28G | 0.43
99 | C18U U28C | 1.2
100 | C18U U28A | 0.86
101 | G17U U43A | 0.09
102 | G17U U43C | 0.06
103 | G17U U43G | 0.06
104 | G17U G36U | 0.05
105 | G17U G36A | 0.09
106 | G17U G36C | 0.09
107 | C18A G33C | 0.04
108 | C18A G33A | 0.03
109 | C18A G33U | 0.04
110 | G17U C45G | 0.05
111 | G17U C45U | 0.18
112 | G17U C45A | 0.05
113 | C18G G19C | 0.83
114 | C18G G19U | 0.56
115 | C18G G19A | 0.31
116 | G17U U38C | 0.04
117 | G17U U38G | 0.08
118 | G17U U38A | 0.17
119 | C18U C42A | 0.09
120 | C18U C42U | 0.17

Row | Variant | self-cleavage
121 | C18U C42G | 0.05
122 | C18A U20G | 0.61
123 | C18A U20A | 0.29
124 | C18A U20C | 0.31
125 | G19A | 1.5
126 | C18U C37U | 0.07
127 | C18U C37G | 0.04
128 | C18U C37A | 0.09
129 | C18U G36U | 0.06
130 | C18U G36C | 0.06
131 | C18U G36A | 0.15
132 | C18A G35A | 0.05
133 | C18A G35U | 0.07
134 | C18A G35C | 0.05
135 | C18A C37U | 0.07
136 | C18A C37A | 0.05
137 | C18A C37G | 0.07
138 | G19A A25U | 1.66
139 | G19A A25G | 0.58
140 | G19A A25C | 1.21
141 | C18G C37G | 0.06
142 | C18G C37U | 0.09
143 | C18G C37A | 0.07
144 | C18U A39U | 0.78

Row | Variant | self-cleavage
145 | C18U A39G | 0.08
146 | C18U A39C | 0.16
147 | C18G A25C | 0.2
148 | C18G A25U | 0.51
149 | C18G A25G | 0.13
150 | C18A G36C | 0.03
151 | C18A G36U | 0.07
152 | C18A G36A | 0.13
153 | C18G U32C | 0.15
154 | C18G U32G | 0.06
155 | C18G U32A | 0.05
156 | C18G A41C | 0.03
157 | C18G A41G | 0.08
158 | C18G A41U | 0.32
159 | C18G G44C | 0.1
160 | C18G G44U | 0.05
161 | C18G G44A | 0.07
162 | C18A U38C | 0.09
163 | C18A U38A | 0.49
164 | C18A U38G | 0.02
165 | C18U A26G | 0.65
166 | C18U A26C | 1.39
167 | C18U A26U | 1.72
